These results are taken from PMC9625839.

The target in the assay is high-affinity mouse IL2 receptor on CTLL-2 cells (mouse (endogenous in CTLL-2)).

For the substance “aldesleukin (FDA-approved recombinant human IL2) (from UniProt P60568 21-133) (ligand)”, the CTLL-2 cell proliferation (WST-1 absorbance), EC50 was found to be 0.6 ng/mL.
